Assays:
[1] = target: human BAFF protein (ACRO Biosystems, Cat. No.: BAF-H52D4) (human, UniProt Q9Y275 134-285); experiment: BLI Octet RED96e, protein captured on AHC sensor, BAFF 100 nM in solution
[2] = target: T1, human APRIL protein (ACRO Biosystems, Cat. No.: APL-H52D1) (human, UniProt O75888 115-250, limits assumed); experiment: BLI Octet RED96e, protein captured on AHC sensor, APRIL 100 nM in solution
T1 sequence (looked up): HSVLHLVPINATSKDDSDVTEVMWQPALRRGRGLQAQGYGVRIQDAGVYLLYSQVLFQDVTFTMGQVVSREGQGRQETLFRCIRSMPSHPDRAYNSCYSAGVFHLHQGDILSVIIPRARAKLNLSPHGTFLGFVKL

[3] = target: T2, human BDCA2 protein (Kactus Biosystems, Cat# BCA-HM402) (human, UniProt Q8WTT0 45-213); experiment: BLI Octet RED96e, protein captured on AHC sensor, BDCA2 100 nM in solution
T2 construct: also called Human BDCA2-His
T2 sequence: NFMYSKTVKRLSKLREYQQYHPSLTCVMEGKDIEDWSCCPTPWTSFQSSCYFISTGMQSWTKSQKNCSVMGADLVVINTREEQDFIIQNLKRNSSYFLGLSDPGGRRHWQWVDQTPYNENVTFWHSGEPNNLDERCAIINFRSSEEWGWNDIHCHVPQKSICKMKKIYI

Chain of human BAFF protein (ACRO Biosystems, Cat. No.: BAF-H52D4) (Q9Y275 134-285 limits assumed): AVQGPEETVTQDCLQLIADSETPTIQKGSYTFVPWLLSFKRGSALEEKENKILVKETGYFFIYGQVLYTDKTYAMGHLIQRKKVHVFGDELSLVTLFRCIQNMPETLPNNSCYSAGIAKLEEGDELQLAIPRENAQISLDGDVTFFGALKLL

B1: bispecific fusion protein BI-9ND2-4GS4 (bispecific antibody, human IgG1, kappa)
heavy: not shown
light: ETVLTQSPATLSLSPGERATLSCRASSSVSYMYWFQQKPGQAPRLLIYSTSNLASGIPARFSGSGSGTDYTLTISSLEPEDFAVYYCQQRRNYPHTFGGGTKVEIKRTVAAPSVFIFPPSDEQLKSGTASVVCLLNNFYPREAKVQWKVDNALQSGNSQESVTEQDSKDSTYSLSSTLTLSKADYEKHKVYACEVTHQGLSSPVTKSFNRGEC
In the case of B1, the Kd [1] is reported as under 0.001 nM, the “Response (nm)” value [1] is reported as 0.468 nm and the koff [1] is reported as under 1e-07 s⁻¹. For the same binder, the kon [1] was 522000 M⁻¹ s⁻¹, the Kd [2] was 0.0667 nM and the “Response (nm)” value [2] was 0.298 nm. The koff [2] was 7.79e-05 s⁻¹, the kon [2] was 1.17e+06 M⁻¹ s⁻¹ and the Kd [3] was under 0.001 nM. The “Response (nm)” value [3] was 0.484 nm, the koff [3] was under 1e-07 s⁻¹ and the kon [3] was 125000 M⁻¹ s⁻¹.

B2: bispecific fusion protein BI-9D2-3G4S-8S (bispecific antibody, human IgG1, kappa)
heavy: not shown
light: B1 light
With B2 the Kd [1] was under 0.001 nM, the “Response (nm)” value [1] was 0.394 nm and the koff [1] was under 1e-07 s⁻¹. The kon [1] was 402000 M⁻¹ s⁻¹, the Kd [2] was 0.166 nM and the “Response (nm)” value [2] was 0.29 nm. It also gave a koff [2] of 0.000134 s⁻¹, a kon [2] of 808000 M⁻¹ s⁻¹ and a Kd [3] of under 0.001 nM. The “Response (nm)” value [3] was 0.476 nm, the koff [3] was under 1e-07 s⁻¹ and the kon [3] was 154000 M⁻¹ s⁻¹.

B3: bispecific fusion protein BI-9D2-3G4S-4S (bispecific antibody, human IgG1, kappa)
heavy: not shown
light: B1 light
B3 was tested, and the Kd [1] was under 0.001 nM, the “Response (nm)” value [1] was 0.358 nm and the koff [1] was under 1e-07 s⁻¹. The kon [1] was 382000 M⁻¹ s⁻¹, the Kd [2] was 0.528 nM and the “Response (nm)” value [2] was 0.285 nm. For the same binder, the koff [2] was 0.000435 s⁻¹, the kon [2] was 824000 M⁻¹ s⁻¹ and the Kd [3] was under 0.001 nM. The “Response (nm)” value [3] was 0.457 nm, the koff [3] was under 1e-07 s⁻¹ and the kon [3] was 155000 M⁻¹ s⁻¹.

B4: bispecific fusion protein BI-9D2-2GS4 (bispecific antibody, human IgG1, kappa)
heavy: not shown
light: B1 light
B4 was tested, and the Kd [1] was under 0.001 nM, the “Response (nm)” value [1] was 0.302 nm and the koff [1] was under 1e-07 s⁻¹. The kon [1] was 412000 M⁻¹ s⁻¹, the Kd [2] was 0.391 nM and the “Response (nm)” value [2] was 0.242 nm. The koff [2] was 0.000339 s⁻¹, the kon [2] was 866000 M⁻¹ s⁻¹ and the Kd [3] was under 0.001 nM. For the same binder, the “Response (nm)” value [3] was 0.56 nm, the koff [3] was under 1e-07 s⁻¹ and the kon [3] was 151000 M⁻¹ s⁻¹.

B5: bispecific fusion protein BI-9D2-1GS4 (bispecific antibody, human IgG1, kappa)
heavy: not shown
light: B1 light
With B5 the Kd [1] was under 0.001 nM, the “Response (nm)” value [1] was 0.299 nm and the koff [1] was under 1e-07 s⁻¹. For the same binder, the kon [1] was 400000 M⁻¹ s⁻¹, the Kd [2] was 0.724 nM and the “Response (nm)” value [2] was 0.261 nm. The koff [2] was 0.000589 s⁻¹, the kon [2] was 813000 M⁻¹ s⁻¹ and the Kd [3] was under 0.001 nM. For the same binder, the “Response (nm)” value [3] was 0.591 nm, the koff [3] was under 1e-07 s⁻¹ and the kon [3] was 149000 M⁻¹ s⁻¹.

B6: bispecific fusion protein BI-9ND2-2GS4 (bispecific antibody, human IgG1, kappa)
heavy: not shown
light: B1 light
In the case of B6, the Kd [1] is reported as under 0.001 nM, the “Response (nm)” value [1] is reported as 0.492 nm and the koff [1] is reported as under 1e-07 s⁻¹. For the same binder, the kon [1] was 456000 M⁻¹ s⁻¹, the Kd [2] was 0.275 nM and the “Response (nm)” value [2] was 0.339 nm. It also gave a koff [2] of 0.000257 s⁻¹, a kon [2] of 937000 M⁻¹ s⁻¹ and a Kd [3] of under 0.001 nM. For the same binder, the “Response (nm)” value [3] was 0.466 nm, the koff [3] was under 1e-07 s⁻¹ and the kon [3] was 115000 M⁻¹ s⁻¹.

B7: bispecific fusion protein BI-9ND2-3GS4 (bispecific antibody, human IgG1, kappa)
heavy: not shown
light: B1 light
B7 was tested, and the Kd [1] was under 0.001 nM, the “Response (nm)” value [1] was 0.487 nm and the koff [1] was under 1e-07 s⁻¹. The kon [1] was 489000 M⁻¹ s⁻¹, the Kd [2] was 0.0944 nM and the “Response (nm)” value [2] was 0.327 nm. The koff [2] was 9.99e-05 s⁻¹, the kon [2] was 1.06e+06 M⁻¹ s⁻¹ and the Kd [3] was under 0.001 nM. The “Response (nm)” value [3] was 0.473 nm, the koff [3] was under 1e-07 s⁻¹ and the kon [3] was 117000 M⁻¹ s⁻¹.

B8: bispecific fusion protein BI-9D2-3GS4 (bispecific antibody, human IgG1, kappa)
heavy: not shown
light: B1 light
In the case of B8, the Kd [1] is reported as under 0.001 nM, the “Response (nm)” value [1] is reported as 0.34 nm and the koff [1] is reported as under 1e-07 s⁻¹. For the same binder, the kon [1] was 422000 M⁻¹ s⁻¹, the Kd [2] was 0.616 nM and the “Response (nm)” value [2] was 0.251 nm. The koff [2] was 0.000582 s⁻¹, the kon [2] was 944000 M⁻¹ s⁻¹ and the Kd [3] was 0.234 nM. For the same binder, the “Response (nm)” value [3] was 0.551 nm, the koff [3] was 3.58e-05 s⁻¹ and the kon [3] was 153000 M⁻¹ s⁻¹.

Source: EP4786495A1 (Nanjing Leads Biolabs Co., Ltd., dated 2026)
